Experimental findings from US20240400663A1 (Regeneron, published 2024) are described below.

Experiment in all cases: cell-based or functional assay
Assay [1] concerns the target PfRH5 of Plasmodium falciparum strain RF7 (on live parasites) (Plasmodium falciparum).
Assay [2] concerns the target PfRH5 of Plasmodium falciparum strain HB3 (on live parasites) (Plasmodium falciparum).
For assay [3], the target named is PfRH5 of Plasmodium falciparum strain Dd2 (on live parasites) (Plasmodium falciparum).
In assay [4] the target is PfRH5 of Plasmodium falciparum strain W2-mef (on live parasites) (Plasmodium falciparum).
Assay [5] has as its target PfRH5 of Plasmodium falciparum strain FCR-1/FVO (on live parasites) (Plasmodium falciparum).
The target of assay [6] is PfRH5 of Plasmodium falciparum strain 7G8 (on live parasites) (Plasmodium falciparum).
Assay [7] deals with PfRH5 of Plasmodium falciparum strain Cam3.II (on live parasites) (Plasmodium falciparum).
Assay [8] deals with PfRH5 of Plasmodium falciparum strain D10 (on live parasites) (Plasmodium falciparum).

B1: H1H29163P2 (antibody, V domains shown)
VH: QVQLVQSGAEVKKPGASVKVSCKTSGYTFTAYYIHWVRQAPGQGLEWMGWINPNNGDTNYALRFQGRVTMTRDMSINTAYMELRGLRSDDTAVYYCARDDLAAAGIGWFDSWGQGTLVTVSS
VL: not shown
As to B1, the “Max growth inhibition (%) RF7” value in assay [1] is 10.7%. Further, the “Max growth inhibition (%) HB3” value in assay [2] worked out at 56.5%. The “Max growth inhibition (%) Dd2” value in assay [3] came out at 61.2%. Further, in assay [4], the “Max growth inhibition (%) W2-mef” value was determined as 63.7%. Besides, in assay [5], the “Max growth inhibition (%) FCR-1/FVO” value worked out at 64.5%. Moreover, the “Max growth inhibition (%) 7G8” value in assay [6] is 62.6%. Moreover, the “Max growth inhibition (%) Cam3.II” value in assay [7] stood at 46.7%.

B2: H1H29138P (antibody, V domains shown)
VH: QVQLVESGGGVVQPGRSLRLSCAASGFTFSTYGMHWVRQAPGKGLEWVAVIWYDGTNKYYADSVKGRFTISRDNSKNTLYLQMISLRAEDTAVYYCARDPSGGDHYYYYGMDVWGQGTTVTVSS
VL: DIQMTQSPSSLSASVGDRITITCQASQDISNYLNWYQQKPGKAPNLLISDASDLETGVPSRFSGSGSGTDFTFTISSLQPEDFATYYCQQYDNIPITFGQGTRLEIKR
B2: the “Max growth inhibition (%) RF7” value in assay [1] came to 51.4%. Besides, the “Max growth inhibition (%) HB3” value in assay [2] was determined as 51.4%. Moreover, the “Max growth inhibition (%) Dd2” value in assay [3] was 74.4%. Also, the “Max growth inhibition (%) W2-mef” value in assay [4] is 66.4%. In addition, the “Max growth inhibition (%) FCR-1/FVO” value in assay [5] came to 84.1%. In addition, in assay [6], the “Max growth inhibition (%) 7G8” value came out at 57.4%. Further, in assay [7], the “Max growth inhibition (%) Cam3.II” value stood at 48.7%. The “Max growth inhibition (%) D10” value in assay [8] was found to be 57.1%.

B3: H1H29149P2 (antibody, V domains shown)
VH: QVQLQESGPGLVKPSQTLSLTCTVSGGSISSGGYYWNWIRQHPGKGLEWIGYIYYSGSTYYNPSLKSRVTISVDTSKNQFSLKLGSVTAADTAVYYCARAPPYNWFDYWGQGTLVTVSS
VL: not shown
As for B3, in assay [1], the “Max growth inhibition (%) RF7” value was 14.7%. Further, in assay [2], the “Max growth inhibition (%) HB3” value is 40%. For the same molecule, the “Max growth inhibition (%) W2-mef” value in assay [4] was 42.8%. For the same molecule, in assay [5], the “Max growth inhibition (%) FCR-1/FVO” value was 58%. Also, the “Max growth inhibition (%) Cam3.II” value in assay [7] is 36.2%. Further, the “Max growth inhibition (%) D10” value in assay [8] was found to be 66%.

B4: H1H29125P (antibody, V domains shown)
VH: QVQLVESGGGVVQPGRSLRLSCAASGFTFSSYGMHWVRQAPGKGLEWMAVISYDGSNKYYADSVKGRFTISRDNSKNTLFLQMNSLRPEDTAVYYCAQDGSSAIYYFYGMDVWGQGTTVTVSS
VL: DIQMTQSPSSLSASIGDRVTITCRASQDINNYLAWFQQKPGKAPKSLIYAASSLQSGVPSKFSGSGSGTDFTLTISSLQPEDFATYYCLQYNSYHPTFGQGTKLEIKR
For the molecule B4, in assay [1], the “Max growth inhibition (%) RF7” value came out at 21%. The “Max growth inhibition (%) Dd2” value in assay [3] is 51.4%. The “Max growth inhibition (%) W2-mef” value in assay [4] was 64.6%. In addition, the “Max growth inhibition (%) FCR-1/FVO” value in assay [5] came out at 67.6%. Also, in assay [6], the “Max growth inhibition (%) 7G8” value turned out to be 47%. For the same molecule, in assay [7], the “Max growth inhibition (%) Cam3.II” value worked out at 42.7%. The “Max growth inhibition (%) D10” value in assay [8] turned out to be 75.4%.

B5: H1H29179P2 (antibody, V domains shown)
VH: QVQLQESGPGLVKPSQTLSLTCTVSGGSISSSGYYWSWIRQHPGRGLEWIGYIYYSGSTYYNPSLKSRVTISVDTSKNQFSLKLNSVTAADTAVYYCARVDYGSGSSFDYWGQGTLVTVSS
VL: not shown
For B5, the “Max growth inhibition (%) RF7” value in assay [1] is -2.99%. In addition, the “Max growth inhibition (%) HB3” value in assay [2] was determined as 40.9%. In addition, the “Max growth inhibition (%) Dd2” value in assay [3] came out at 13.5%. Besides, in assay [4], the “Max growth inhibition (%) W2-mef” value came out at 22.9%. In addition, in assay [5], the “Max growth inhibition (%) FCR-1/FVO” value turned out to be 49%. Besides, the “Max growth inhibition (%) 7G8” value in assay [6] came to 34.1%. Also, the “Max growth inhibition (%) Cam3.II” value in assay [7] amounted to 33.4%. Further, the “Max growth inhibition (%) D10” value in assay [8] was found to be 62.5%.

B6: H1H29151P2 (antibody, V domains shown)
VH: QVQLVESGGGLVKPGGSLRLSCAASGFTFSDYYMNWVRQAPGKGLEWVSYISNSGNTQYYADSVKGRFTISRDNAKNSLFLQMNSLRAEDTAVYYCTREGLEYSSSEPFDYWGQGTLVTVSS
VL: not shown
On to B6, for which the “Max growth inhibition (%) RF7” value in assay [1] was 18.3%. Further, the “Max growth inhibition (%) HB3” value in assay [2] turned out to be 31.7%. The “Max growth inhibition (%) Dd2” value in assay [3] was 58%. In assay [4], the “Max growth inhibition (%) W2-mef” value came out at 53.9%. Further, in assay [5], the “Max growth inhibition (%) FCR-1/FVO” value was found to be 53.7%. Also, in assay [6], the “Max growth inhibition (%) 7G8” value is 47.5%. Moreover, the “Max growth inhibition (%) Cam3.II” value in assay [7] was determined as 26.3%. For the same molecule, in assay [8], the “Max growth inhibition (%) D10” value was found to be 38.7%.

B7: H1H29141P (antibody, V domains shown)
VH: QVQLVESGGGVVQPGRSLRLSCAASGFTFSSYGMHWVRQAPGKGLEWVTFISFDERNKYYADSVKGRFTISRDNSKNTLYLQMNSLRAEDTAMYYCASEVGYSFGHDAFDIWGQGTMVTVSS
VL: not shown
For B7, the “Max growth inhibition (%) RF7” value in assay [1] stood at 32.1%. In assay [2], the “Max growth inhibition (%) HB3” value worked out at 50%. The “Max growth inhibition (%) Dd2” value in assay [3] is 65.3%. The “Max growth inhibition (%) W2-mef” value in assay [4] was 56.2%. In addition, the “Max growth inhibition (%) FCR-1/FVO” value in assay [5] came out at 74.2%. Besides, in assay [6], the “Max growth inhibition (%) 7G8” value worked out at 54.6%. Besides, in assay [7], the “Max growth inhibition (%) Cam3.II” value was determined as 49.3%. The “Max growth inhibition (%) D10” value in assay [8] was found to be 50%.

B8: H1H29171P2 (antibody, V domains shown)
VH: QVQLVESGGGVVQPGRSLRLSCAASGFTFSSYGMHWVRQAPGKGLEWVAVISYDGSNKYYADSVKGRFTISRDNSKNTLYLQMNSLRAEDTAVYYCAKDDWNYDAFDIWGQGTMVTVSS
VL: not shown
As to B8, the “Max growth inhibition (%) RF7” value in assay [1] is -12.5%. The “Max growth inhibition (%) HB3” value in assay [2] is 0.52%. For the same molecule, the “Max growth inhibition (%) Dd2” value in assay [3] was found to be 7.71%. Further, the “Max growth inhibition (%) W2-mef” value in assay [4] was 0.74%. In assay [5], the “Max growth inhibition (%) FCR-1/FVO” value was 11.7%. In assay [6], the “Max growth inhibition (%) 7G8” value was determined as 17%. Moreover, the “Max growth inhibition (%) Cam3.II” value in assay [7] stood at 5.45%. Further, the “Max growth inhibition (%) D10” value in assay [8] was determined as 10.6%.

B9: H1H29146P2 (antibody, V domains shown)
VH: EVQLVESGGGLVQPGGSLQLSCAASGFAFSDSAIYWVRQASGKGLEWVGRIRNKANRFATAYGASVKGRFSIHRDDSKNTAYLQMNSLKTEDTAVYYCARHGHDTLTEGYGMDVWGQGTTVTVSS
VL: not shown
For the molecule B9, the “Max growth inhibition (%) RF7” value in assay [1] was 5.97%. Also, the “Max growth inhibition (%) HB3” value in assay [2] was 33.9%. In assay [4], the “Max growth inhibition (%) W2-mef” value came out at 0.57%. For the same molecule, the “Max growth inhibition (%) FCR-1/FVO” value in assay [5] worked out at 7.32%. Also, the “Max growth inhibition (%) 7G8” value in assay [6] stood at 19.1%. For the same molecule, the “Max growth inhibition (%) Cam3.II” value in assay [7] was found to be 8.18%. Further, the “Max growth inhibition (%) D10” value in assay [8] amounted to 10.8%.

B10: H1H29166P2 (antibody, V domains shown)
VH: EVQLVESGGGLLQPGRSLRLSCVASGFTFDDYAMHWVRQAPGKGLEWVSGISWNSESIGYADSVRGRFTISRDNAKNSLYLQMNSLRAEDTALYYCAKAPYSGTYFEYFRHWGQGTLVTVSS
VL: not shown
On to B10, for which, in assay [1], the “Max growth inhibition (%) RF7” value was found to be 19.4%. The “Max growth inhibition (%) HB3” value in assay [2] came to 54.9%. The “Max growth inhibition (%) Dd2” value in assay [3] came out at 60%. Further, the “Max growth inhibition (%) W2-mef” value in assay [4] came out at 61.9%. Moreover, the “Max growth inhibition (%) FCR-1/FVO” value in assay [5] was determined as 69.7%. In addition, in assay [6], the “Max growth inhibition (%) 7G8” value came to 54.6%. For the same molecule, in assay [7], the “Max growth inhibition (%) Cam3.II” value was 55.9%. Moreover, the “Max growth inhibition (%) D10” value in assay [8] is 70.9%.

B11: H1H29183P2 (antibody, V domains shown)
VH: QVQLVQSGPEVKKPGASVKVSCKASGYTFTSYGISWVRQAPGQGLEWLGWISGFNGRTDYTEKLQDRITMTTDRSSSTAYMELRSLRYDDTAVYYCARDGLEKLGDYWGQGTLVTVSS
VL: not shown
As to B11, in assay [1], the “Max growth inhibition (%) RF7” value is -6.27%. For the same molecule, in assay [2], the “Max growth inhibition (%) HB3” value came out at 4.92%. The “Max growth inhibition (%) Dd2” value in assay [3] stood at 0.68%. Also, the “Max growth inhibition (%) W2-mef” value in assay [4] is -0.55%. Also, in assay [5], the “Max growth inhibition (%) FCR-1/FVO” value came to 16.1%. Further, the “Max growth inhibition (%) 7G8” value in assay [6] was 17.8%. The “Max growth inhibition (%) Cam3.II” value in assay [7] worked out at 8.66%. In addition, in assay [8], the “Max growth inhibition (%) D10” value was 6.79%.
